The record followed here is patent US20260258115A1 (MAPP BIOPHARMACEUTICAL, published 2026).

In test [1] the target is RSV F on RSV-A2 virus (Respiratory syncytial virus, RSV-A2, UniProt P03420 26-574). The test is described as follows: cell-based or functional assay.
Test [2] deals with RSV postfusion F (postF), F ΔFP (Respiratory syncytial virus, UniProt P03420 26-513). The experiment in a line: BLI, IgG on anti-human IgG sensor, 100 nM antigen.
In test [3] the target is RSV prefusion F (preF), DS-Cav1 (Respiratory syncytial virus, UniProt P03420 26-513). The experiment in a line: BLI, IgG on anti-human IgG sensor, 100 nM antigen.

B1: ADI-41720 (antibody, V domains shown)
VH: QVQLVESGGGVVQPGRSLRLSCAASGFTFSSYGMHWVRQAPGKGLEWVSVIWFDGSKKYYEDSVKGRFTISRDNSKNTLYLEMNSLRAEDTAVYYCAREAPVRLGELSLYGYFDYWGQGTLVTVSS
VL: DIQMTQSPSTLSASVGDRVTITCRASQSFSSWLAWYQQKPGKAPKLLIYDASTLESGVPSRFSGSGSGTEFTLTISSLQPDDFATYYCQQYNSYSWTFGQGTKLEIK
notes: also called Ab 896; Antibody Number 896
Regarding B1, the “Neutralization IC50 (RSV subtype A)” value in test [1] is greater than 25 µg/mL. Also, the Kd in test [2] turned out to be 1.17 nM; in test [3] it was 22 nM.

B2: ADI-41794 (antibody, V domains shown)
VH: EVQLQQWGAGLLKPSETLSLTCAVYGGSFSGYYWSWIRQPPGKGLEWIGEINHSGSTNYNPSLKSRVTISVDTSKNQFSLKLSSVTAADTAVYYCARGTRTIVYCDGDCYQPWAYHYYGMDVWGQGTTVTVSS
VL: QSVVTQEPSVSAAPGQKVTISCSGGSSNIGNNYVSWYQHLPGTAPKLLIYDNDKRPSGIPDRFSGSKSGTSATLGITGLQTGDEADYYCGTWDSSLSAVVFGGGTKLTVL
Regarding B2, the “Neutralization IC50 (RSV subtype A)” value in test [1] was greater than 25 µg/mL. Moreover, the Kd was 3.01 nM in test [2] and 3.31 nM in test [3].

B3: ADI-41778 (antibody, V domains shown)
VH: QVQLVESGGGQGQPGRSLRLSCAASGFTFDDYAMHWVRQVPGKGLEWVSGINWNSGYIGYADSVKGRFTISRDNAKNSLYLQMNSLRAEDTALYYCAKANNPIDSSGYNRGFDTWGQGTLVTVSS
VL: QSALTQPRSVSGSPGQSVTISCTGTSSDVGGYNYVSWYQQHPGKAPKLMIYDVNKRPSGVPDRFSGSKSDNTASLTISGLQAEDESDYFCCSYAGTYTWVFGGGTKVTVL
In the case of B3, the “Neutralization IC50 (RSV subtype A)” value in test [1] was greater than 25 µg/mL. In addition, the equilibrium dissociation constant (Kd) in test [2] amounted to 0.504 nM; in test [3], 2.75 nM.

B4: ADI-41807 (antibody, V domains shown)
VH: EVQLLESGPALVKPTQTLTLTCTFSGFSLTTTRMSVSWIRQPPGKALEWLARIDWDDDKYYSTSLKTRLTISKDTSKNQVVLTMTNMDPVDTATYFCARVNVYAANGYYSYYLDYWGQGTLVTVSS
VL: DIVMTQTPSSLSASVGDRVTITCRTSQSSSRYLNWYQKEPGKAPRLLIYLASALRSGVPSRFSGSGSGTDFTLTISSLQSEDFATYYCQQTYSIPWTFGQGTKVEIK
With B4, the “Neutralization IC50 (RSV subtype A)” value in test [1] was greater than 25 µg/mL. Also, the Kd in test [2] stood at 1.19 nM; in test [3], 1.5 nM.

B5: ADI-41808 (antibody, V domains shown)
VH: QVQLVQSGAELKKPGSSVRISCKVSGVTSDNYAITWVRQAPGQGLEWMGRVIPIFPVPQYAQKFQGRVTLSADKSTRTAYLELHSLRSEDTATYYCATHRPSDSWGQGTLVTVSS
VL: DIRVTQSPSTLSASVGDRVTITCRASQNINSWLAWYQQKPGKAPKLLIFKASSLESGVPARFSGSGFGTEFTLTITSLQPDDFASYYCQQYDTYPYPFGQGTKVEIK
notes: also called Ab 916; Antibody Number 916
Turning to B5, the “Neutralization IC50 (RSV subtype A)” value in test [1] is greater than 25 µg/mL. The figures for the equilibrium dissociation constant (Kd) in test [2] and in test [3] were 22.5 nM and 13.9 nM, respectively.

B6: ADI-41554 (antibody, V domains shown)
VH: EVQLVESGGGLVQPGGSLRLSCAASGFTFSSYPMNWVRQGPGKGLEWVSSISSSGASPYYADSVKGRFTISRDNSKNTLYLQMNSLRADDTAVYYCAREDYYYYYMDVWGKGTTVTVSS
VL: ETTLTQSPSTLSASVGDRVTITCRASESISSWLAWYQQKPGKAPKLLIFKASTVQSGVPSRFSGSGSGTEFTLTISSLQPDDFATYYCQQYNSYLLTFGGGTKVEIK
notes: also called Ab 836; Antibody Number 836
Consider B6, for which the “Neutralization IC50 (RSV subtype A)” value in test [1] was greater than 25 µg/mL. In addition, the values for the Kd in test [2] and in test [3] were 1.07 nM and 1.35 nM, respectively.

B7: ADI-41555 (antibody, V domains shown)
VH: EVQLVESGPGLVKPSQTLSLTCSVSGGSISSGIHYWSWIRQHPGKGLEWIGYIYYSGSTYYNPSLESRITISVDTSKNQFSLKVSSVTAADTAVYYCARVNRASRMTTFGVANERSIYYFMDVWGKGTTVTVSS
VL: ETTLTQSPATLSLSPGERATLSCRATQSVGNYLAWYQQKPGQAPRLLIHDASNRATGIPARFSGSGSGTDFTLTISSLEPEDFAVYYCQLRINWLFTFGPGTKVEIK
Regarding B7, the “Neutralization IC50 (RSV subtype A)” value in test [1] stood at 25 µg/mL. The values for the Kd in test [2] and in test [3] were 1.12 nM and 5.69 nM, respectively.

B8: ADI-41768 (antibody, V domains shown)
VH: EVQLVESGGGLVQPGRSLRLSCAASGFTFGDYAMHWVRQAPGKGLEWVSGITWNSGRVVYADSVKGRFTISRDNAKNSLYLQINSLRAEDTALYYCVKGSCNGGICYSADYWGQGTLVTVSS
VL: NFMLTQPHSVSESPGKTVTISCTRSSGSIARNFVHWYQQRPGSSPTTVIYEDNQRPSGVPGRFSGSIDSSSNSASLTISGLRSEDEADYYCQSYDSDNWVFGGGTKLTVL
notes: also called Ab 900; Antibody Number 900
With B8, the “Neutralization IC50 (RSV subtype A)” value in test [1] is greater than 25 µg/mL. The dissociation constant (Kd) was 0.338 nM in test [2] and 1.61 nM in test [3].

B9: ADI-41804 (antibody, V domains shown)
VH: QVQLQQWGAGLLKPSETLSLTCSVLGGSFSGYYWTWIRQPPGKGLEWIGEITHDGSSNYNPSLNSRVTISVDTSNYQFSLKMRSVTAADTAVYYCARSPDLTIFGGLYFYYGISVWGQGTTVTVSS
VL: DIQMTQSPSSLSASMGDRVTITCRASQDISNYLAWYQQKPGKVPNLLIYAASTLQGGVPSRFSGSGSGTDFTLTISSLQPEDVAIYYCQKYKSAPRTFGQGTKVEIK
Regarding B9, the “Neutralization IC50 (RSV subtype A)” value in test [1] was greater than 25 µg/mL. Moreover, the dissociation constant (Kd) in test [2] stood at 0.436 nM; in test [3] it was 0.331 nM.

B10: ADI-41811 (antibody, V domains shown)
VH: QVQLQQSGPRLVKPSHTLSLTCVISGDSVSSGSAAWSWIRQSPSRGLEWLGRTYYRSKWYYDYAVSVKGRIIIQPDTSKNQFSLQLNSVSPEDTAVYYCARDPDSGNYFHYYGMDVWGQGTTVTVSS
VL: DIVMTQSPATLSLSPGERATLSCRASQSVDVYFAWYQQKPGQAPRLLIYDASKRASGVPARFSGSASGTDFTLTISSLEPEDFAVYYCQQRAKWPPYTFGQGTKLEIK
As to B10, the “Neutralization IC50 (RSV subtype A)” value in test [1] is greater than 25 µg/mL. The results for the dissociation constant (Kd) in test [2] and in test [3] were 0.744 nM and 1.64 nM, respectively.

B11: ADI-41557 (antibody, V domains shown)
VH: EVQLLESGPGLVKPSETLSLTCNVSGGSISSYYWSWIRQSPGKGLEWIGHIYDTGYTNYNPSLKSRVTMSVDTSKNRFSLKLDSVTAADTAVYYCARGRGWRNLYNWFDPWGQGTLVTVSS
VL: DIVMTQSPATLSVSPGERATLSCRTSQSFSSMLAWYQQKPGQAPRLLIYGASTRATGIPARFSGSGSATEFTLTISNLQSEDVAVYYCQQYNSWPLTFGGGTKVEIK
notes: also called Ab 839; Antibody Number 839
Take B11: in test [1], the “Neutralization IC50 (RSV subtype A)” value is greater than 25 µg/mL. For the same molecule, the Kd in test [2] stood at 86.1 nM; in test [3] it was 30.9 nM.

B12: ADI-41737 (antibody, V domains shown)
VH: QVQLQESGPGLVKPSQTLSLTCTVSGGSMISGDFYWSWIRQPPGKGLEWIGYIYYSGTTYYSPSLKSRVSMSIDTSKSQFSLKLSSVTAADTAVYYCARKYSYGEKAYHYWGQGTLVTVSS
VL: EIVLTQSPGTLSLSPGERATLSCRASQTVGNNYLAWYQQKPGQAPRLLIYGASSRATGIPDRFSGSGSGTDFTLTISRLESEDFAVYHCHQYGTSPQTFGQGTKVEIK
notes: also called Ab 897; Antibody Number 897
For the molecule B12, the “Neutralization IC50 (RSV subtype A)” value in test [1] is greater than 25 µg/mL. Also, the figures for the Kd in test [2] and in test [3] were 1.58 nM and 3.58 nM, respectively.

B13: ADI-41552 (antibody, V domains shown)
VH: EVQLLESGGGLVQPGGSLRLSCAASGFTFSPYSMNWVRQAPGKGLEWVSYISRSGSFKYYADSVKGRFTISRDDAKNSLYLHMNSLRDDDTAVYYCVSYCSSATCHQRFDYWGQGTLVTVSS
VL: EIVLTQSPATLSLSPGERATLSCRASQSVNSYLAWYQQKPGQAPRLLIYDASNRATGIPARFSGSGSGTDFTLTISSLEPEDFAVYYCQERNSWPKLTFGGGTKVEIK
For B13, the “Neutralization IC50 (RSV subtype A)” value in test [1] was greater than 25 µg/mL. In addition, the dissociation constant Kd in test [2] amounted to 0.522 nM; in test [3], 3.44 nM.

B14: ADI-41803 (antibody, V domains shown)
VH: RCTLQQWGAGRVKPSETLSLTCAVYRGPFSGYYWSWIRQPPGKGLEWIGEINLGETNPGGSTHYNPSLRSRLSMSIDTSKKQFSLRVNSVTAADTAVYYCTRGPVSRIYDTSGSYSLNYYGMDVWGQGTTVTVSS
VL: DIRMTQSPSSLSASVGDRVTITCRASQGIRNDLGWYQQKPGRAPERLIYPASSLQGGVPSRFIASGSGTEFTLTISNLQPEDFATYYCLQHNSYPRTFGQGTKVEIK
notes: also called Ab 912; Antibody Number 912
Consider B14, for which the “Neutralization IC50 (RSV subtype A)” value in test [1] was greater than 25 µg/mL. The Kd is 0.711 nM in test [2] and 1.99 nM in test [3].

B15: ADI-41799 (antibody, V domains shown)
VH: QVQLVQSGAEVKKPGSSVKVSCQASGGTFSTHALSWVRQTPGHGLEWVGGVLPVFGATKYPRKFQGRVTITADKSTNTAYMELSSLRSDDTAVYYCARVVVHSTITTAKDFFSGVHDIWGQGTMVTVSS
VL: DIRMTQSPSTLSASVGDRVTITCRASQTVSSWLAWYQQKPGKAPKLLIYQASSLESGVPSRFSGSGSGTEFTLTISGLQPDDFATYFCQHYNSYSPVTFGGGTKVEIK
notes: also called Ab 910; Antibody Number 910
Take B15: the “Neutralization IC50 (RSV subtype A)” value in test [1] is greater than 25 µg/mL. In addition, the Kd in test [2] was 1.1 nM; in test [3] it was 3.28 nM.

B16: ADI-41743 (antibody, V domains shown)
VH: EVQLVESGSGLVKPSQTLSLTCSVSGGSISSGGYSWSWIRQPPGKGLEWIGFIYNTGSTYSNPSLKSRLTLSVDRSNNRFSLKLNSVTAADTGVYFCARSGNVRQCDATGHCSTNYYFEYWGLGTLVTVSS
VL: EIVMTQSPATLSVSPGERATLSCRASQSVSSNLAWYQQKPGQAPRLLIYGASTRATGIPARFSGSGSGTEFTLTISSLQSEDFAVYYCQQHDDWPPLTFGGGTKVEIK
notes: also called Ab 898; Antibody Number 898
Turning to B16, the “Neutralization IC50 (RSV subtype A)” value in test [1] was greater than 25 µg/mL. The dissociation constant Kd in test [2] was found to be 1.27 nM; in test [3], 5.45 nM.

B17: ADI-41781 (antibody, V domains shown)
VH: QVQLVQSGAEVRKPGASVKVSCKAFGYTFTNFAISWVRQAPGQGLEWMGWIGPYNGDTDYEQKFQGRVTMTADTSSSTVFMELRSLRFDDTAVYYCARGKGSTIPLGYYIGMDVWGQGTTVTVSS
VL: ETTLTQSPSSLSASVGDRVTMTCRASQGISNYLAWYQQKPGKPPKLLIYLASSLQSGVPSRFSGSGSGTDFTLTISSLQPEDVATYYCQKYNSAPLTFGGGTKLEIK
For B17, in test [1], the “Neutralization IC50 (RSV subtype A)” value is greater than 25 µg/mL. Further, the equilibrium dissociation constant (Kd) in test [2] was determined as 0.653 nM; in test [3] it was 3.46 nM.
